Patent US20230105029A1 (CHIA TAI TIANQING PHARMACEUTICAL GROUP, published 2023)
Numbering of substitutions follows the chain as printed. One block for each binder: values may come before it.

How the values were obtained:
[1] = molecular target: T1, recombinant human IL4Rα-his protein (in house made) (human, UniProt P24394 26-232, limits assumed); experiment: capture ELISA: antibody captured on anti-IgG Fc plate, biotin human IL4Rα-his detected
T1 construct: also called Human IL4Ra-his
Description: (§1) Plates were washed once with wash buffer (PBS+0.05% w/v Tween-20, PBST) and then blocked with 200 μl/well blocking buffer (5% w/v non-fatty milk in PBST) for 2 hours at 37° C. Plates were washed again and incubated with 100 μl/well serially diluted anti-IL4Rα antibodies of the disclosure, the benchmark or negative control hIgG (human immunoglobulin (pH4) for intravenous injection, Hualan Biological Engineering Inc.) (5-fold dilution in 2.5% w/v non-fatty milk in PBST, starting at 66.7 nM) for 40 minutes at 37° C., and then washed 4 times again. Plates containing captured anti-IL4Rα antibodies were incubated with biotin-labeled human IL4Rα-his protein (in house made with SEQ ID NO: 57, 0.14 nM in 2.5% w/v non-fatty milk in PBST, 100 μl/well) for 40 minutes at 37° C., washed 4 times, and incubated with streptavidin conjugated HRP (1:10000 dilution in PBST, Jackson Immuno Research, Cat #016-030-084, 100 μl/well) for 40 minutes at 37° C. After a final wash, plates were incubated with 100 μl/well ELISA substrate TMB (Innoreagents, Cat #TMB-S-002). The reaction was stopped in 10 minutes at 25° C. with 50 μl/well 1M H₂SO₄, and the absorbance was read at 450 nm. Data was analyzed using Graphpad Prism software and EC₅₀ values were reported.

[2] = molecular target: T1, recombinant human IL4Rα-his protein (in …); experiment: competitive ELISA, blocks biotin-IL4 binding to coated IL4Rα-his
[3] = molecular target: T1, recombinant human IL4Rα-his protein (in …); experiment: as above; remark: listed apart in the source
Description: The activity of the anti-IL4Rα antibodies of the disclosure to block IL4-IL4Rα interaction was measured in a competitive ELISA assay. Briefly, 100 μl human IL4Rα-his proteins (prepared in-house with SEQ ID NO: 57) were coated on 96-well micro plates at 2 μg/mL in PBS overnight at 4° C. The next day, plates were washed with wash buffer (PBS+0.05% w/v Tween-20, PBST), and blocked with 5% w/v non-fatty milk in PBST for 2 hours at 37° C. Plates were then washed again using wash buffer.
Serially diluted anti-IL4Rα antibodies or the controls (starting at 80 nM with a 4-fold serial dilution) in 2.5% w/v non-fatty milk in PBST, 100 μl per well, were added to the IL4Rα bound plates, and incubated with the human IL4Rα-his proteins at 37° C. for 40 minutes. Plates were washed 4 times using wash buffer, and then added and incubated for 40 minutes at 37° C. with 100 μl/well of 0.56 nM biotin-labeled human IL4 protein (Sino biological inc., Cat #11846-HNAE). Plates were washed again using wash buffer. Thereafter, the plates were added with 100 μl/well of streptavidin conjugated HRP (1:10000 dilution in PBST buffer, Jackson Immunoresearch, Cat #016-030-084) and incubated for 40 minutes at 37° C. Plates were washed again using wash buffer. Finally, TMB was added and the reaction was stopped using 1M H₂SO₄, and the absorbance was read at 450 nm. Data was analyzed using Graphpad Prism software and IC₅₀ values were reported.

[4] = molecular target: T1, recombinant human IL4Rα-his protein (in …); experiment: competitive ELISA, blocks biotin-IL4Rα-his binding to coated Benchmark (competitor)
Description: The ability of the anti-IL4Rα antibodies of the disclosure to block benchmark-human IL4Rα binding was measured in a competitive ELISA assay. Briefly, the benchmark was coated on 96-well micro plates at 2 μg/mL in PBS, 100 μl per well, and incubated overnight at 4° C. The next day, plates were washed with wash buffer (PBS+0.05% w/v Tween-20, PBST), and blocked with 5% w/v non-fatty milk in PBST for 2 hours at 37° C. tiring plate blocking, the anti-IL4Rα antibodies of the disclosure or controls were diluted with biotin labeled human IL4Rα-his proteins (prepared in-house with SEQ ID NO: 57, 0.55 nM in 2.5% w/v non-fatty milk in PBST), starting at 100 nM with a 4-fold serial dilution, and incubated at 25° C. for 40 minutes. After plate washing, the antibody/IL4Rα-his mixtures were added to benchmark coated plates, 100 μl per well. After incubation at 37° C. for 40 minutes, plates were washed using wash buffer. Then the plates were added and incubated with 100 μl/well streptavidin conjugated HRP for 40 minutes at 37° C. to detect biotin-labeled human IL4Rα-his bound to plates. Plates were washed again using wash buffer. Finally, TMB was added and the reaction was stopped using 1M H₂SO₄, and the absorbance was read at 450 nm. Data was analyzed using Graphpad Prism software and IC₅₀ values were reported.

[5] = molecular target: T1, recombinant human IL4Rα-his protein (in …); experiment: capture ELISA, biotin-IL4Rα-his
Description: as §1

[6] = molecular target: T2, human IL4Rα expressed on 293F-IL4Rα cells (human, UniProt P24394 26-825); experiment: flow cytometry, 293F-IL4Rα cells
T2 construct: whole, on cells; also called cell surface human IL4Rα
Description: Then, 2×10⁵ cells per well in 96 well-plates were incubated in 100 μL of the anti-IL4Rα antibodies or controls of various concentrations (starting at 80 nM with a 4-fold serial dilution) in FACS buffer for 40 minutes on ice. […] Following an incubation of 40 minutes at 4° C. in dark, cells were washed three times and resuspended in FACS buffer. Fluorescence was measured using a Becton Dickinson FACS Canto II-HTS equipment. Data was analyzed using Graphpad Prism software and EC₅₀ values were reported.

EC50 [1]: 0.0759 nM | IC50 [2]: 1.89 nM | IC50 [3]: 0.81 nM | IC50 [4]: 0.04 nM | EC50 [5]: 0.08 nM
B1: mouse antibody C2C1A1A1 (antibody, V domains shown)
VH: EVQLVESGGGLVQPGGSLKLSCAASGFTFSTYGMSWVRQTPDKRLELVATINSNGGSTSYPDSVKGRFTISRDNAKNTLYLQMSSLKSEDTAMFYCARFFRFRNAMDYWGQGTSVTVSS
VL: DIQMTQSPASLSASVGETVTITCRTSENIYSYLAWYQQKQGKSPQFLVYNAKTLAEGVPSRFSGSGSGTQFSLNINSLQSEDFGSYYCQHYYGPPTWTFGGGTKLEIK
notes: Mouse hybridoma mAb; also called Mouse C2C1A1A1

IC50 [2]: 3.12 nM | EC50 [6]: 0.33 nM | IC50 [4]: 0.17 nM
B2: chimeric antibody C2C1A1A1 (antibody, human IgG4 S228P, kappa, V domains shown)
VH: B1 VH
VL: DIQMTQSPASLSASVGETVTITCRTSENIYSYLAWYQQKQGKSPQFLVYNAKTLAEGVPSRFSGSGSGTQFSLNINSLQSEDFGSYYCQHYYGPPTWTFGGGTKLEIKR
notes: Mouse variable domains on human IgG4/kappa; also called Chimeric C2C1A1A1; chC2C1A1A1

EC50 [1]: 0.129 nM | IC50 [3]: 0.73 nM | IC50 [4]: 0.72 nM | EC50 [5]: 0.13 nM
B3: mouse antibody C2B2F7B7 (antibody, V domains shown)
VH: B1 VH with S59N, F94Y, F102I
VL: B1 VL with T25A, N74K, S80P, P94T
notes: Mouse hybridoma mAb

EC50 [1]: 0.0644 nM | IC50 [3]: 1.8 nM | IC50 [4]: 0.02 nM | EC50 [5]: 0.06 nM
B4: mouse antibody B1D2F7D3B5 (antibody, V domains shown)
VH: EVKLVESGGGLVKPGGSLKLSCAASGFTFSSYAMSWVRQTPEKRLEWVASISSGDSTYYLDSVKGRFTISRDNAMNILYLQMSSLRSEDTAVYYCERSGGSAPYWGQGTLVSVSA
VL: QIVLTQSPAIMSASPGEMVTISCSASSSVSYMYWYQQKPGSSPKPWIYRTSNLASGVPARFSGSGSGTSYSLTISSMEAEDAATYYCQQYHSFPLTFGAGTKLELK
notes: Mouse hybridoma mAb

EC50 [1]: 0.0703 nM | IC50 [3]: 2.88 nM | IC50 [4]: 0.02 nM | EC50 [5]: 0.07 nM
B5: mouse antibody B9D1D11F8D8 (antibody, V domains shown)
VH: B4 VH with M75R, M82V, V92M, S112T
VL: B4 VL with E17D, S30N
notes: Mouse hybridoma mAb

EC50 [1]: 0.0393 nM | IC50 [2]: 1.64 nM | IC50 [3]: 0.81 nM | EC50 [6]: 0.33 nM | IC50 [4]: 0.02 nM | EC50 [5]: 0.04 nM
B6: mouse antibody B8G11F2B7G5E8 (antibody, V domains shown)
VH: EVQLQQSGADLVRPGASVKLSCTASGFNIKDTYMHWVKQRPEQGLEWVGRIDPTNGYTIYASKFQGKATITADTSSNTAYMQLSSLTSGDTAVYHCVSRRPWFAYWGQGTLVTVSA
VL: DILMTQTPLSLPVSLGAQASISCRSSQSIVHSNGNTYLEWYLQKPGQSPKLLIYKVTNRFSGVPDRFSGSGSGTDFTLKISRVEAEDLGIYYCFQGSHVPYTFGGGTKLEIK
notes: Mouse hybridoma mAb; also called Mouse B8G11F2B7G5E8; mAb B8G11F2B7G5E8

IC50 [2]: 1.82 nM | EC50 [6]: 0.44 nM | IC50 [4]: 1.52 nM
B7: chimeric antibody B8G11F2B7G5E8 (antibody, human IgG4 S228P, kappa, V domains shown)
VH: B6 VH
VL: DILMTQTPLSLPVSLGAQASISCRSSQSIVHSNGNTYLEWYLQKPGQSPKLLIYKVTNRFSGVPDRFSGSGSGTDFTLKISRVEAEDLGIYYCFQGSHVPYTFGGGTKLEIKR
notes: Mouse variable domains on human IgG4/kappa; also called Chimeric B8G11F2B7G5E8; chB8G11F2B7G5E8
